The numbers were not newly measured in publication PMC10412679, which cites them from elsewhere.

The series deals with CD47 (Homo sapiens) (UniProt Q08722).

One may read the Kd as the concentration at which binding is half-saturated. With magrolimab, the Kd is 8 nM.
